In patent publication US20150337309:

Assays:
periostin (Homo sapiens) [1] = target: T1, periostin (Homo sapiens) (UniProt Q15063); experiment: filter
T1 sequence: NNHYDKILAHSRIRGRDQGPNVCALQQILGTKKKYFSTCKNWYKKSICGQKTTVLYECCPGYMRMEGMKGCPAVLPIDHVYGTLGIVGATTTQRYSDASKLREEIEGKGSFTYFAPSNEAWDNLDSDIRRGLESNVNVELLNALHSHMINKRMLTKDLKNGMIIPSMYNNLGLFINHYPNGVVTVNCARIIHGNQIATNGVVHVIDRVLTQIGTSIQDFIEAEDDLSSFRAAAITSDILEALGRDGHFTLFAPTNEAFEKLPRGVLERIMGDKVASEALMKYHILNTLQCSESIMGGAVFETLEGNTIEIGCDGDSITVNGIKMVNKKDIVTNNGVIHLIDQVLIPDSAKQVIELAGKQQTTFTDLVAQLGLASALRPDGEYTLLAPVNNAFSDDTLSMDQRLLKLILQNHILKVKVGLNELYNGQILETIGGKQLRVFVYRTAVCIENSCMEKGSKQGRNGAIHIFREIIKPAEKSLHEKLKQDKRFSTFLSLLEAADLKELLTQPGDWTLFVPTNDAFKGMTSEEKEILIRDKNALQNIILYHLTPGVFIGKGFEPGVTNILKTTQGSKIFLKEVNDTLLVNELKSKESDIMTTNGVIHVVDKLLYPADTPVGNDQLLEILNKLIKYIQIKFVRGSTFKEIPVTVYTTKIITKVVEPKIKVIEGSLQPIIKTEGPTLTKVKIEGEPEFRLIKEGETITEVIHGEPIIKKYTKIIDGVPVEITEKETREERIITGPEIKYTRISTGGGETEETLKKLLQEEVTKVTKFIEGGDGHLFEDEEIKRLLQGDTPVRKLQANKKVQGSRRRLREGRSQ

periostin (Homo sapiens) [2] = target: T1, periostin (Homo sapiens); experiment: cell_activity; settings: BndU at all n [BndU at 6,7,9,14,16,21,22,26,28,31,34,35,44]; MDA-MB-231 adhesion to periostin-coated wells, 100 nM aptamer; control aptamer no effect

In the case of “ACGAGTCACACGTTGATGACTGGATGGTAGTTAAAGAGGGTGGGGCAACAA [PNDA-2]”, the Kd (periostin (Homo sapiens) [1]; BndU at all n [BndU at 6,13,14,17,21,25,28,31,32,41], Bmax 78%) is reported as 7.41 nM.
“GATGTGAGTGTGTGACGAGTCTGGTCCTTCCTTTGACGACTATTGTTTGGTATCGGACAACAACAACAGAACAAGGAAAGG [clone 5 full length]” gave a Kd (periostin (Homo sapiens) [1]; BndU at all n of the core [BndU at 20,22,25,28,29,32,33,34,41,43,44,46,47,48,51,53], Bmax 80%, same buffer, 37 C) of 1.41 nM.
For “ACGAGTCTGGTCCTTCCTCCCTAATTGCTGTTGAGGTATCGGCTACAACAA [PNDA-4]”, the Kd (periostin (Homo sapiens) [1]; BndU at all n [BndU at 6,8,11,14,15,18,22,25,26,29,31,32,37,39,44], Bmax 90%) was 1 nM.
Work on “ACGAGTTGTCGCATGTGCGGTTCAGTCTGGTCCTTCAGCACCGTACAACAA [PNDA-3]” yielded a Kd (periostin (Homo sapiens) [1]; BndU at all n [BndU at 6,7,9,14,16,21,22,26,28,31,34,35,44], Bmax 95%) of 1.07 nM and an activity (periostin (Homo sapiens) [2]) of 60 % inhibition.
“ACGAGTCTGGTCCTTCCTTTGACGACTATTGTTTGGTATCGATCAACAACAA [PNDA-1]” gave a Kd (periostin (Homo sapiens) [1]; BndU at all n [BndU at 6,8,11,14,15,18,19,20,27,29,30,32,33,34,37,39,43], Bmax 92%) of 2.85 nM.
Sequence “GATGTGAGTGTGTGACGAGTCACACGTTGATGACTGGATGGTAGTTAAAGAGGGTGGGGCAACAACAGAACAAGGAAAGG [clone 3 full length]” has a Kd (periostin (Homo sapiens) [1]; BndU at all n of the core [BndU at 20,27,28,31,35,39,42,45,46,55], Bmax 72%, 200 mM HEPES, 510 mM NaCl, 25 mM KCl, 25 mM MgCl2, 37 C) of 0.54 nM.
Work on “GATGTGAGTGTGTGACGAGTCTGGTCCTTCCTGTATTAGATCATATCCTTAGGTATCGTCAACAACAGAACAAGGAAAGG [clone 1 full length]” yielded a Kd (periostin (Homo sapiens) [1]; BndU at all n of the core [BndU at 20,22,25,28,29,32,34,36,37,41,44,46,49,50,54,56,59], Bmax 80%, same buffer, 37 C) of 0.6 nM.
Sequence “GATGTGAGTGTGTGACGAGTTGTCGCATGTGCGGTTCAGTCTGGTCCTTCAGCACCGTACAACAACAGAACAAGGAAAGG [clone 8 full length]” has a Kd (periostin (Homo sapiens) [1]; BndU at all n of the core [BndU at 20,21,23,28,30,35,36,40,42,45,48,49,58], Bmax 81%, same buffer, 37 C) of 1.14 nM.
“GATGTGAGTGTGTGACGAGTCTGGTCCTTCCTCCCTAATTGCTGTTGAGGTATCGGCTACAACAACAGAACAAGGAAAGG [clone 17 full length]” showed a Kd (periostin (Homo sapiens) [1]; BndU at all n of the core [BndU at 20,22,25,28,29,32,36,39,40,43,45,46,51,53,58], Bmax 78%, same buffer, 37 C) of 0.63 nM.
